± gives the uncertainty stated by the source.

Experimental findings from the Human Domainome abundance scans (Beltran et al. 2025) are described below.

The labels stand for the following.
B1: Zinc finger homeobox protein 4, residues 2183 to 2238; numbered along this chain, Q86UP3 (parent)
chain: SSRTRFTDYQLRVLQDFFDTNAYPKDDEIEQLSTVLNLPTRVIVVWFQNARQKARK

The series covers variants of B1. In words: abundance fitness (aPCA) (normalised: wild type 0, dead -1); higher = more abundant; growth selection in yeast, the domain comes from the species named. The settings on record: Homo sapiens.
Take SSRTRFTDYQLRVLQDFFDTQAYPKDDEIEQLSTVLNLPTRVIVVWFQNARQKARK: the abundance fitness is -0.497 ± 0.13.
As to SSRTRFTDYQLRVLQDFFDTKAYPKDDEIEQLSTVLNLPTRVIVVWFQNARQKARK, the abundance fitness was -0.201 ± 0.11.
In the case of SSRTRFTDYQLRVLQDFFDTCAYPKDDEIEQLSTVLNLPTRVIVVWFQNARQKARK, the abundance fitness came to 0.346 ± 0.16.
With SSRTRFTDYQLRVLQDFFDTPAYPKDDEIEQLSTVLNLPTRVIVVWFQNARQKARK the figure was -0.718 ± 0.17.
Take SSRTRFTDYQLRVLQDFFDTVAYPKDDEIEQLSTVLNLPTRVIVVWFQNARQKARK: the abundance fitness was -0.279 ± 0.089.
Consider SSRTRFTDYQLRVLQDFFDTMAYPKDDEIEQLSTVLNLPTRVIVVWFQNARQKARK, for which the abundance fitness was -0.414 ± 0.13.
With SSRTRFTDYQLRVLQDFFDTHAYPKDDEIEQLSTVLNLPTRVIVVWFQNARQKARK the figure was -0.219 ± 0.15.
On to SSRTRFTDYQLRVLQDFFDTRAYPKDDEIEQLSTVLNLPTRVIVVWFQNARQKARK, for which the abundance fitness was -0.181 ± 0.08.
For SSRTRFTDYQLRVLQDFFDTSAYPKDDEIEQLSTVLNLPTRVIVVWFQNARQKARK, the abundance fitness was -0.2 ± 0.099.
With SSRTRFTDYQLRVLQDFFDTYAYPKDDEIEQLSTVLNLPTRVIVVWFQNARQKARK the figure was -0.565 ± 0.2; with SSRTRFTDYQLRVLQDFFDTIAYPKDDEIEQLSTVLNLPTRVIVVWFQNARQKARK, -0.187 ± 0.18; with SSRTRFTDYQLRVLQDFFDTTAYPKDDEIEQLSTVLNLPTRVIVVWFQNARQKARK, -0.027 ± 0.13.
With SSRTRFTDYQLRVLQDFFDTGAYPKDDEIEQLSTVLNLPTRVIVVWFQNARQKARK the figure was -0.387 ± 0.077; with SSRTRFTDYQLRVLQDFFDTFAYPKDDEIEQLSTVLNLPTRVIVVWFQNARQKARK, -0.451 ± 0.17.
With SSRTRFTDYQLRVLQDFFDTEAYPKDDEIEQLSTVLNLPTRVIVVWFQNARQKARK, the abundance fitness is -0.197 ± 0.1.
For the variant SSRTRFTDYQLRVLQDFFDTLAYPKDDEIEQLSTVLNLPTRVIVVWFQNARQKARK, the abundance fitness was -0.488 ± 0.099.
Take SSRTRFTDYQLRVLQDFFDTWAYPKDDEIEQLSTVLNLPTRVIVVWFQNARQKARK: the abundance fitness was -0.556 ± 0.13.
With SSRTRFTDYQLRVLQDFFDTAAYPKDDEIEQLSTVLNLPTRVIVVWFQNARQKARK the figure was -0.176 ± 0.087; with SSRTRFTDYQLRVLQDFFDTDAYPKDDEIEQLSTVLNLPTRVIVVWFQNARQKARK, -0.128 ± 0.13.
On to SSRTRFTDYQLRVLQDFFDTNATPKDDEIEQLSTVLNLPTRVIVVWFQNARQKARK, for which the abundance fitness is -0.093 ± 0.12.
The same measure for SSRTRFTDYQLRVLQDFFDTNAGPKDDEIEQLSTVLNLPTRVIVVWFQNARQKARK: -0.169 ± 0.089; for SSRTRFTDYQLRVLQDFFDTNAWPKDDEIEQLSTVLNLPTRVIVVWFQNARQKARK: -0.061 ± 0.099; for SSRTRFTDYQLRVLQDFFDTNASPKDDEIEQLSTVLNLPTRVIVVWFQNARQKARK: 0.032 ± 0.092.
Regarding SSRTRFTDYQLRVLQDFFDTNAMPKDDEIEQLSTVLNLPTRVIVVWFQNARQKARK, the abundance fitness came to 0.031 ± 0.12.
SSRTRFTDYQLRVLQDFFDTNAVPKDDEIEQLSTVLNLPTRVIVVWFQNARQKARK: the abundance fitness was -0.039 ± 0.095.
For SSRTRFTDYQLRVLQDFFDTNACPKDDEIEQLSTVLNLPTRVIVVWFQNARQKARK, the abundance fitness is -0.228 ± 0.12.
Turning to SSRTRFTDYQLRVLQDFFDTNANPKDDEIEQLSTVLNLPTRVIVVWFQNARQKARK, the abundance fitness was -0.369 ± 0.23.
With SSRTRFTDYQLRVLQDFFDTNADPKDDEIEQLSTVLNLPTRVIVVWFQNARQKARK, the abundance fitness stood at 0.313 ± 0.15.
Regarding SSRTRFTDYQLRVLQDFFDTNAEPKDDEIEQLSTVLNLPTRVIVVWFQNARQKARK, the abundance fitness was 0.361 ± 0.13.
In the case of SSRTRFTDYQLRVLQDFFDTNARPKDDEIEQLSTVLNLPTRVIVVWFQNARQKARK, the abundance fitness was 0.047 ± 0.074.
As to SSRTRFTDYQLRVLQDFFDTNALPKDDEIEQLSTVLNLPTRVIVVWFQNARQKARK, the abundance fitness stood at 0.008 ± 0.085.
On to SSRTRFTDYQLRVLQDFFDTNAAPKDDEIEQLSTVLNLPTRVIVVWFQNARQKARK, for which the abundance fitness is -0.097 ± 0.12.
Regarding SSRTRFTDYQLRVLQDFFDTNAFPKDDEIEQLSTVLNLPTRVIVVWFQNARQKARK, the abundance fitness was -0.084 ± 0.16.
Consider SSRTRFTDYQLRVLQDFFDTNAIPKDDEIEQLSTVLNLPTRVIVVWFQNARQKARK, for which the abundance fitness is -0.219 ± 0.15.
With SSRTRFTDYQLRVLQDFFDTNAPPKDDEIEQLSTVLNLPTRVIVVWFQNARQKARK the figure was -0.345 ± 0.12; with SSRTRFTDYQLRVLQDFFDTNAQPKDDEIEQLSTVLNLPTRVIVVWFQNARQKARK, -0.173 ± 0.12.
As for SSRTRFTDYQLRVLQDFFKTNAYPKDDEIEQLSTVLNLPTRVIVVWFQNARQKARK, the abundance fitness was -0.074 ± 0.13.
SSRTRFTDYQLRVLQDFFLTNAYPKDDEIEQLSTVLNLPTRVIVVWFQNARQKARK: the abundance fitness is -0.028 ± 0.098.
Take SSRTRFTDYQLRVLQDFFHTNAYPKDDEIEQLSTVLNLPTRVIVVWFQNARQKARK: the abundance fitness was -0.173 ± 0.15.
As for SSRTRFTDYQLRVLQDFFGTNAYPKDDEIEQLSTVLNLPTRVIVVWFQNARQKARK, the abundance fitness is -0.032 ± 0.075.
Regarding SSRTRFTDYQLRVLQDFFSTNAYPKDDEIEQLSTVLNLPTRVIVVWFQNARQKARK, the abundance fitness was -0.131 ± 0.093.
Consider SSRTRFTDYQLRVLQDFFYTNAYPKDDEIEQLSTVLNLPTRVIVVWFQNARQKARK, for which the abundance fitness is -0.171 ± 0.18.
SSRTRFTDYQLRVLQDFFTTNAYPKDDEIEQLSTVLNLPTRVIVVWFQNARQKARK: the abundance fitness turned out to be 0.164 ± 0.12.
With SSRTRFTDYQLRVLQDFFRTNAYPKDDEIEQLSTVLNLPTRVIVVWFQNARQKARK, the abundance fitness is -0.147 ± 0.079.
With SSRTRFTDYQLRVLQDFFITNAYPKDDEIEQLSTVLNLPTRVIVVWFQNARQKARK, the abundance fitness was -0.234 ± 0.17.
In the case of SSRTRFTDYQLRVLQDFFWTNAYPKDDEIEQLSTVLNLPTRVIVVWFQNARQKARK, the abundance fitness was -0.292 ± 0.12.
On to SSRTRFTDYQLRVLQDFFPTNAYPKDDEIEQLSTVLNLPTRVIVVWFQNARQKARK, for which the abundance fitness was -0.43 ± 0.17.
